Results from FireProtDB (doi:10.1021/bi701365e).
Where “and” joins values, the source holds several entries; their conditions need not be identical. Equal entries are not always repeated.

Settings: Helicobacter pylori (strain ATCC 700392 / 26695), pH 9, Thermal, EPPS 50 mM, reversible: Yes (>80%), whole UniProt chain shown

B1: Flavodoxin wild type, O25776 (protein)
chain: MGKIGIFFGTDSGNAEAIAEKISKAIGNAEVVDVAKASKEQFNSFTKVILVAPTAGAGDLQTDWEDFLGTLEASDFATKTIGLVGLGDQDTYSETFAEGIFHIYEKAKAGKVVGQTPTDGYHFEASKAVEGGKFVGLVIDEDNQDDLTDERISKWVEQVKGSFA
unfolding enthalpy (van 't Hoff) (DSC, transition: 3): 29 kcal/mol and 50 kcal/mol
unfolding enthalpy (van 't Hoff) (Fluorescence, transition: 4): 44 kcal/mol
